According to patent US20070020283A1 (Regeneron, published 2007):

T1: hIFNγRβ.SG.hFc (human, UniProt P38484 28-246)
T1 construct: also called pCTR 2828; not shown: hinge, CH2 and CH3 regions of human IgG1 (hFc)
T1 sequence: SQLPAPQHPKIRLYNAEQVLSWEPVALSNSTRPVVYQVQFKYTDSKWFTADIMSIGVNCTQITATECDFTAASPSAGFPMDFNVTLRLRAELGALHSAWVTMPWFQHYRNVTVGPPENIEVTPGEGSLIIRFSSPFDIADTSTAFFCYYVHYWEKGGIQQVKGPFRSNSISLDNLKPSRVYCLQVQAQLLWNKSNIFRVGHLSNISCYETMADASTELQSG

B1: hIFNγRα(1-239).SG.hFc (Fc fusion, not shown: a dimerising Fc or GST)
chain: EMGTADLGPSSVPTPTNVTIESYNMNPIVYWEYQIMPQVPVFTVEVKNYGVKNSEWIDACINISHHYCNISDHVGDPSNSLWVRVKARVGQKESAYAKSEEFAVCRDGKIGPPKLDIRKEEKQIMIDIFHPSVFVNGDEQEVDYDPETTCYIRVYNVYVRMNGSEIQYKILTQKEDDCDEIQCQLAIPVSSLNSQYCVSAEGVLHVWGVTTEKSKEVCITIFSG
B2: hIFNγRα(1-239).TG.hFc.ARA.hIFNγRβ (Fc fusion, not shown: a dimerising Fc or GST)
chain (part 1 of 2): EMGTADLGPSSVPTPTNVTIESYNMNPIVYWEYQIMPQVPVFTVEVKNYGVKNSEWIDACINISHHYCNISDHVGDPSNSLWVRVKARVGQKESAYAKSEEFAVCRDGKIGPPKLDIRKEEKQIMIDIFHPSVFVNGDEQEVDYDPETTCYIRVYNVYVRMNGSEIQYKILTQKEDDCDEIQCQLAIPVSSLNSQYCVSAEGVLHVWGVTTEKSKEVCITIFTG
chain (part 2 of 2): ARASQLPAPQHPKIRLYNAEQVLSWEPVALSNSTRPVVYQVQFKYTDSKWFTADIMSIGVNCTQITATECDFTAASPSAGFPMDFNVTLRLRAELGALHSAWVTMPWFQHYRNVTVGPPENIEVTPGEGSLIIRFSSPFDIADTSTAFFCYYVHYWEKGGIQQVKGPFRSNSISLDNLKPSRVYCLQVQAQLLWNKSNIFRVGHLSNISCYETMADASTELQ
B3: human interferon γ (ligand, UniProt P01579 24-166, looked up)
chain: QDPYVKEAENLKKYFNAGHSDVADNGTLFLGILKNWKEESDRKIMQSQIVSFYFKLFKNFKDDQSIQKSVETIKEDMNVKFFNSNKKKRDDFEKLTNYSVTDLNVQRKAIHELIQVMAELSPAAKTGKRKRSQMLFRGRRASQ
notes: Injected in solution over captured fusion proteins (BiaCore); Recombinant human IFNγ at 4 pM in the luciferase bioassays; also called IFNγ; human IFNγ

Tests used:
human interferon γ [1] = target: B3; test: cell-based or functional assay
hIFNγRβ.SG.hFc = target: T1, hIFNγRβ.SG.hFc; test: BiaCore, fusion captured by anti-human Fc, human IFNγ injected
Description: (§1) The affinity of the interferon γ-binding fusion polypeptides for human interferon γ was measured using a BlAcore 2000™ or BlAcore 3000™, as described in WO 00/75319, herein specifically incorporated by reference in its entirety. Briefly, the IFNγ-specific polypeptides were produce as small-scale supernatants by transiently transfecting CHO cells, using Lipofectamine/LIPO Plus® (Life Technologies), with DNA constructs encoding the proteins. Supernatants were collected after 72 hours and protein expression was measured by Western blotting with anti-human Fc HRP-conjugated antibody (Promega) and visualized by ECL (Pierce). Briefly, 5.4×10⁵ CHOK1 cells per well of a 6 well tissue culture dish were transfected using 1 μg of DNA and 5 μl of lipofectamine in OptiMEM™ (Gibco). After 12 h the cells were washed with OptiMEM™ and 2 ml of CHO serum free medium (Gibco) was added. After 60 h and 72 h the media was collected and centrifuged to remove cellular debris. For the BiaCore™ analysis, the IFNγ-binding fusion polypeptides from the transiently transfected CHO supernatants were captured onto the chip surface using anti-human Fc antibodies. Various concentrations of human IFNγ are injected over the surface and the time course of association and dissociation are monitored. Kinetic analyses using BIA evaluation software were performed to obtain the association and dissociation rate constants.

[2] = target: B2; test: BiaCore (SPR), fusion captured by anti-human Fc, human IFNγ injected; R1-Fc-R2 configuration
Description: as §1

hIFNγRα(1-239).SG.hFc = target: B1; test: BiaCore (SPR), fusion from CHO supernatant captured by anti-human Fc, human IFNγ injected
Description: as §1

human interferon γ [3] = target: B3; test: BiaCore, fusion captured by anti-human Fc, human IFNγ injected
Description: as §1

human interferon γ [4] = target: B3; test: BiaCore (SPR), fusion captured by anti-human Fc, human IFNγ injected; R2-R1-Fc configuration
Description: as §1

IC50 (M), GAS-luciferase bioassay in HEK293 cells (human interferon γ [1]) [M]	IC50 (M), ISRE-luciferase bioassay in HEK293 cells (human interferon γ [1]) [M]	also measured	Binder
7.9e-09	6.2e-09	–	B1
1.6e-08	8e-07	–	B2
–	–	binding result (hIFNγRβ.SG.hFc): no binding; Kd [2]: > 10 nM; Kd (hIFNγRα(1-239).SG.hFc): 6 nM	B3
–	–	binding result (human interferon γ [3]): no binding	hIFNγRβ(C174S).SG.hFc (Fc fusion, also called pCTR 2848; not shown: hinge, CH2 and CH3 regions of human IgG1 (hFc)) SQLPAPQHPKIRLYNAEQVLSWEPVALSNSTRPVVYQVQFKYTDSKWFTADIMSIGVNCTQITATECDFTAASPSAGFPMDFNVTLRLRAELGALHSAWVTMPWFQHYRNVTVGPPENIEVTPGEGSLIIRFSSPFDIADTSTAFFSYYVHYWEKGGIQQVKGPFRSNSISLDNLKPSRVYCLQVQAQLLWNKSNIFRVGHLSNISCYETMADASTELQSG
9.8e-09	1.46e-08	Kd (human interferon γ [4]): > 10 nM	hIFNγRβ.TG.hIFNγRα(1-239).SG.hFc (Fc fusion, PCTR number 2843 is printed for two different constructs (r17 and r19); also called pCTR 2843; R2-R1-Fc; not shown: hinge, CH2 and CH3 regions of human IgG1 (hFc)) SQLPAPQHPKIRLYNAEQVLSWEPVALSNSTRPVVYQVQFKYTDSKWFTADIMSIGVNCTQITATECDFTAASPSAGFPMDFNVTLRLRAELGALHSAWVTMPWFQHYRNVTVGPPENIEVTPGEGSLIIRFSSPFDIADTSTAFFCYYVHYWEKGGIQQVKGPFRSNSISLDNLKPSRVYCLQVQAQLLWNKSNIFRVGHLSNISCYETMADASTELQTGMALLFLLPLVMQGVSRAEMGTADLGPSSVPTPTNVTIESYNMNPIVYWEYQIMPQVPVFTVEVKNYGVKNSEWIDACINISHHYCNISDHVGDPSNSLWVRVKARVGQKESAYAKSEEFAVCRDGKIGPPKLDIRKEEKQIMIDIFHPSVFVNGDEQEVDYDPETTCYIRVYNVYVRMNGSEIQYKILTQKEDDCDEIQCQLAIPVSSLNSQYCVSAEGVLHVWGVTTEKSKEVCITIFSG
